Reference: PMC9712689 (Communications Biology, 2022)

What was measured:
Settings in all cases: both partners purified
MltD [1] = target: T1, MltD (P. aeruginosa PAO1, UniProt Q9I2T2 1-534); assay: SPR; RlpA-Δ81 or RlpA-SPOR amine-coupled to its own CM4 chip, partner as analyte; 25 °C; 10 mM HEPES pH 7.4, 150 mM NaCl, 3 mM EDTA, 0.005% P20; alternate fitting model for PBP1a on RlpA-SPOR
T1 sequence (looked up): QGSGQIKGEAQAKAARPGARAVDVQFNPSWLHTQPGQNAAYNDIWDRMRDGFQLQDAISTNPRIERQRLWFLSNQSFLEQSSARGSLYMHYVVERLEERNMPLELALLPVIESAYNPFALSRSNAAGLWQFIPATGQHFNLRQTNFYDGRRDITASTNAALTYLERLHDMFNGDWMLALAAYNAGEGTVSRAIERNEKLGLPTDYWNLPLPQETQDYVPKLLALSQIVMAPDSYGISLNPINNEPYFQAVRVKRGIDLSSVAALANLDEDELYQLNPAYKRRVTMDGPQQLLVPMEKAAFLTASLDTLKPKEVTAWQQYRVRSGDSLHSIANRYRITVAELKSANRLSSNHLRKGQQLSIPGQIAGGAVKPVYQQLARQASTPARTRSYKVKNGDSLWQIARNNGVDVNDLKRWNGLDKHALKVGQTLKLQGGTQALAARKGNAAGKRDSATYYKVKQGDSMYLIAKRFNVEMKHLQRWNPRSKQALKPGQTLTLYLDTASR

MltF2 [2] = target: T2, MltF2 (P. aeruginosa PAO1, UniProt Q9HZY1 1-476); assay: as above
T2 sequence (looked up): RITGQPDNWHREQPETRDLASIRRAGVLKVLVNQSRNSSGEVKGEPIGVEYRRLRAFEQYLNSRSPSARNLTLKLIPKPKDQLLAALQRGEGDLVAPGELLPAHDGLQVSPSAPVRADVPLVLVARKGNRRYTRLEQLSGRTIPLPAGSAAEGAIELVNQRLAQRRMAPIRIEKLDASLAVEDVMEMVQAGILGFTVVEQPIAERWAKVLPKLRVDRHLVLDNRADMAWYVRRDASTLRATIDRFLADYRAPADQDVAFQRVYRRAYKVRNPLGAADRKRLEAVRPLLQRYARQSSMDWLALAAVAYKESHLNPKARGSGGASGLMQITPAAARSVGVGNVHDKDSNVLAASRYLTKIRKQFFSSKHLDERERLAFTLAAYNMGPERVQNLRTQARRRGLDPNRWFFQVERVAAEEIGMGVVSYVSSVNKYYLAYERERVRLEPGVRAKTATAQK

TypA [3] = target: T3, TypA (P. aeruginosa PAO1, UniProt Q9HU67 1-605); assay: as above
T3 sequence (looked up): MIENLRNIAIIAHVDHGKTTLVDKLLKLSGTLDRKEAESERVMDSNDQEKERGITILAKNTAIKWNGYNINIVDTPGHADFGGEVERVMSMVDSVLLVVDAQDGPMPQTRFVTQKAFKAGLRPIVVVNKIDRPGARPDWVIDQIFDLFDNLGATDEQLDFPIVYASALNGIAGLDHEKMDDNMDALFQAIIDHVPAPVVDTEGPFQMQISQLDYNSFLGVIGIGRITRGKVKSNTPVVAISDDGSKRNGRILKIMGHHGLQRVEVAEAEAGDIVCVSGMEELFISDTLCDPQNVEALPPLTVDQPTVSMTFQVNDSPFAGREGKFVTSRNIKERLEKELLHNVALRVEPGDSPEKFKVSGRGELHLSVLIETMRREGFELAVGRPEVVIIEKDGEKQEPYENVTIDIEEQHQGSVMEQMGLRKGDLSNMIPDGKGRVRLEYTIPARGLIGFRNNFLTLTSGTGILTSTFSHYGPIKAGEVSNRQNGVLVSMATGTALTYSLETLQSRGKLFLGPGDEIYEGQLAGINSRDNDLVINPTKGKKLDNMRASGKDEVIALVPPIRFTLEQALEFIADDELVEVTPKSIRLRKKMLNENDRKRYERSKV

PBP1a [4] = target: T4, PBP1a (P. aeruginosa PAO1, UniProt Q07806 27-822); assay: as above
PilA = target: T5, PilA (P. aeruginosa PAO1, UniProt P04739); assay: ITC
T5 construct: source: E. coli, purified (Ni-NTA or Strep-Tactin)
T5 sequence: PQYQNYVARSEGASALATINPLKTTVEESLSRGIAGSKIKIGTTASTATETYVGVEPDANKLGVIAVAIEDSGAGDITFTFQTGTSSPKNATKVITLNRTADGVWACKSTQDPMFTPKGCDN

SltB1 = target: T6, SltB1 (P. aeruginosa PAO1, UniProt Q9HX24 1-340); assay: ITC
T6 sequence (looked up): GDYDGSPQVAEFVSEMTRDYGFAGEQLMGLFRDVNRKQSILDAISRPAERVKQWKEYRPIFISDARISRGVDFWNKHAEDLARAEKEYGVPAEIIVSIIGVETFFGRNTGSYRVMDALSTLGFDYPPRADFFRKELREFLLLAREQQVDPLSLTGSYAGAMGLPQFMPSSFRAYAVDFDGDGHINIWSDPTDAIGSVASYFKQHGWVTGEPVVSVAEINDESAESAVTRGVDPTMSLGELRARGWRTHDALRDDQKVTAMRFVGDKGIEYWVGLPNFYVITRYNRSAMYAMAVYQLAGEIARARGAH

PBP1a [5] = target: T4, PBP1a; assay: ITC
PA2854 = target: T7, PA2854 (P. aeruginosa PAO1, UniProt Q9HZZ0); assay: SPR
T7 construct: source: E. coli, purified (Ni-NTA or Strep-Tactin)
T7 sequence: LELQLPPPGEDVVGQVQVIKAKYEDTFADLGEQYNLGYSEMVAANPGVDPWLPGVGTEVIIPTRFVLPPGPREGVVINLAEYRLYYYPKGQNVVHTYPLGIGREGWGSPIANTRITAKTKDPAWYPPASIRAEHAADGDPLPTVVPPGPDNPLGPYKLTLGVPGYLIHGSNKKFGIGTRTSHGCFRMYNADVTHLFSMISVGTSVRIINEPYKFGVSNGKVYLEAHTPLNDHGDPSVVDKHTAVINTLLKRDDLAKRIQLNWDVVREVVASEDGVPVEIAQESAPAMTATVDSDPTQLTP

PilO = target: T8, PilO (P. aeruginosa PAO1, UniProt G3XD51); assay: SPR
T8 construct: source: E. coli, purified (Ni-NTA or Strep-Tactin)
T8 sequence: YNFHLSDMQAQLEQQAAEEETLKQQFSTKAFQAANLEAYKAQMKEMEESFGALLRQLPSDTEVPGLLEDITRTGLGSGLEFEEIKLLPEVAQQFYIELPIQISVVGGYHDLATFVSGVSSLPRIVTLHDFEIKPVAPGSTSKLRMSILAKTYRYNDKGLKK

SltB2 = target: T9, SltB2 (P. aeruginosa PAO1, UniProt Q9I4G6 1-398); assay: SPR
T9 sequence (looked up): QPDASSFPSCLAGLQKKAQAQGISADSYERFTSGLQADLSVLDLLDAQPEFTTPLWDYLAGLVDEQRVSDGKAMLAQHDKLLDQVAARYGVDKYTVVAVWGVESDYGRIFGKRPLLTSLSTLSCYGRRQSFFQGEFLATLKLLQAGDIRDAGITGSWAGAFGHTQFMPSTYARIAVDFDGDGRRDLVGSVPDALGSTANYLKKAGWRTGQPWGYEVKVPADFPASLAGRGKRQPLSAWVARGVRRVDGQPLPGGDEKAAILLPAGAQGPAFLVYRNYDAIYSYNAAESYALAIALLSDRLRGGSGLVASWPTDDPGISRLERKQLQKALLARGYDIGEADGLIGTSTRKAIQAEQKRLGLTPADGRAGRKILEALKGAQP

MltD [6] = target: T1, MltD; assay: SPR
PBP4 = target: T10, PBP4 (P. aeruginosa PAO1, UniProt Q9HZG1 1-476); assay: SPR
T10 sequence (looked up): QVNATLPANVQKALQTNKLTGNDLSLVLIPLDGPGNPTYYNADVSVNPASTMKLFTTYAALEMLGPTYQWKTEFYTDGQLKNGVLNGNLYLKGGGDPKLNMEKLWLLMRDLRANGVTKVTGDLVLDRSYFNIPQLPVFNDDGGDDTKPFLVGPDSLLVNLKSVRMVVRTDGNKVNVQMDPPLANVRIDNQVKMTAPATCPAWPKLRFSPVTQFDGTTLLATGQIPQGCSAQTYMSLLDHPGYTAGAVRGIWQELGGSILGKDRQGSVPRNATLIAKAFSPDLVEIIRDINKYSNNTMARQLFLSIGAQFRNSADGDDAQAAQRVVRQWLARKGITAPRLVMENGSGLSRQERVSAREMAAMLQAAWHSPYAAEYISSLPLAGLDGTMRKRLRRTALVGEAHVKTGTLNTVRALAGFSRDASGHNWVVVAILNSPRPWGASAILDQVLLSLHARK

MltF = MltF (P. aeruginosa PAO1, UniProt Q9HXN1 33-490); assay: SPR
MltB = target: T11, MltB (P. aeruginosa PAO1, UniProt Q9HVX3 1-367); assay: SPR
T11 sequence (looked up): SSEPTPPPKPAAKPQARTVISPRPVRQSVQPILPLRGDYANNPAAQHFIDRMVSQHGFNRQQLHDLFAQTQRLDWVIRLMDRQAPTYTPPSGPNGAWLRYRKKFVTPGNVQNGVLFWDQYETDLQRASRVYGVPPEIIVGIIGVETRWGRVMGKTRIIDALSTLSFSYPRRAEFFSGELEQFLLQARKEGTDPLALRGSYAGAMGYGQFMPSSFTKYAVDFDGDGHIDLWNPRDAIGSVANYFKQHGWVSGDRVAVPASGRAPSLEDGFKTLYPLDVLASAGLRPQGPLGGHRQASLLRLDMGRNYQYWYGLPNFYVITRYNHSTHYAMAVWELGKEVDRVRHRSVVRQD

MltF2 [7] = target: T2, MltF2; assay: SPR
TypA [8] = target: T3, TypA; assay: SPR
PBP1a [9] = target: T4, PBP1a; assay: SPR

T4 sequence (Q07806 27-822): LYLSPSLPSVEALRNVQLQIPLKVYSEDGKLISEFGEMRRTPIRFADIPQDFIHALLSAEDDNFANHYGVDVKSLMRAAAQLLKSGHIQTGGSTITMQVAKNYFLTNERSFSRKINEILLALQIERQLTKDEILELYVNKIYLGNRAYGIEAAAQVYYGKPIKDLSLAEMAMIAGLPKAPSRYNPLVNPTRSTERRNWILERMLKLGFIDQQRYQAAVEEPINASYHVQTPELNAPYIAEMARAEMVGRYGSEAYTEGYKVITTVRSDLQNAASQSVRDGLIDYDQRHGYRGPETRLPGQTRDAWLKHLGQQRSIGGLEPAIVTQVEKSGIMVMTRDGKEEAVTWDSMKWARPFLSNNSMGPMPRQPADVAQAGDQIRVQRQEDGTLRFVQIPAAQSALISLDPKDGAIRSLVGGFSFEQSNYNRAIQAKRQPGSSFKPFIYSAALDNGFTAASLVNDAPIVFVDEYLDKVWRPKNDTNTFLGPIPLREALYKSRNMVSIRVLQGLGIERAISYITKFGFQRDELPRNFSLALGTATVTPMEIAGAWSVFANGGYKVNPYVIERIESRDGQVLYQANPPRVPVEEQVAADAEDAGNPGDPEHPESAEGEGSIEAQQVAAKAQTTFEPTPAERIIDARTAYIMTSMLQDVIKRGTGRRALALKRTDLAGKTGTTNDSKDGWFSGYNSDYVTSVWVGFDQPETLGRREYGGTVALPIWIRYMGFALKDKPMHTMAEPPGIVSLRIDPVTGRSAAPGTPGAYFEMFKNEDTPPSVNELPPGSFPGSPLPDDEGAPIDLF
Chain of MltF (Q9HXN1 33-490): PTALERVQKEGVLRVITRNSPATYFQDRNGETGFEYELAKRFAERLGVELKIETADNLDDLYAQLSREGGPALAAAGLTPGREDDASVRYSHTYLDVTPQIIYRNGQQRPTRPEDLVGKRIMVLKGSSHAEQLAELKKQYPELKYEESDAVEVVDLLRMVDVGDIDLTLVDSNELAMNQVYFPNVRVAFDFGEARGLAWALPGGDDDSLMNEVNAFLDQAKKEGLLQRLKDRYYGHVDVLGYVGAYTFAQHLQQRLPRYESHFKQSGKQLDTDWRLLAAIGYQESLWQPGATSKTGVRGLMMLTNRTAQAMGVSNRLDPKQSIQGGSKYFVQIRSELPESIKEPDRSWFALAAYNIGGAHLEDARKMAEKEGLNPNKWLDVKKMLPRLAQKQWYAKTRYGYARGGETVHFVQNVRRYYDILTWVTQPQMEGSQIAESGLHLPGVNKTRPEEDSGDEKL

B1: RlpA-SPOR (domain or fragment, P. aeruginosa PAO1, UniProt Q9X6V6 264-342, looked up)
chain: ADGLYLQVGAFANPDAAELLKAKLSGVTAAPVFISSVVRNQQILHRVRLGPIGSADEVSRTQDSIRVANLGQPTLVRPD
Kd (MltD [1]): 200 nM
koff (MltD [1]): 0.0027 s⁻¹
kon (MltD [1]): 13800 M⁻¹ s⁻¹
Kd (MltF2 [2]): 98 nM
koff (MltF2 [2]): 0.00077 s⁻¹
kon (MltF2 [2]): 7900 M⁻¹ s⁻¹
Kd (TypA [3]): 4250 nM
koff (TypA [3]): 0.00034 s⁻¹
kon (TypA [3]): 80 M⁻¹ s⁻¹
Kd (PBP1a [4]): 190 nM
koff (PBP1a [4]): 0.00049 s⁻¹
kon (PBP1a [4]): 2600 M⁻¹ s⁻¹
Kd (PilA): 73 nM
stoichiometry N (PilA): 1
Kd (SltB1): 9800 nM
Kd (PBP1a [5]): 104 nM
stoichiometry N (PBP1a [5]): 0.26
Kd (PA2854): 1410 nM
koff (PA2854): 0.00038 s⁻¹
kon (PA2854): 270 M⁻¹ s⁻¹
Kd (PilO): 5760 nM
koff (PilO): 0.00438 s⁻¹
kon (PilO): 760 M⁻¹ s⁻¹

B2: RlpA-Δ32 (domain or fragment)
chain: PQQPARQAGISGPGDYSRPHRDGAPWWDVDVSRIPDAVPMPHNGSVKANPYTVLGKTYYPMNDARAYRMVGTASWYGTKFHGQATANGETYDLYGMTAAHKTLPLPSYVRVTNLDNGKSVIVRVNDRGPFYSDRVIDLSFAAAKKLGYAETGTARVKVEGIDPVQWWAQRGRPAPMVLAQPKQAVAQAAPAAAQTQAVAMAQPIETYTPPPAQHAAAVLPVQIDSKKNASLPADGLYLQVGAFANPDAAELLKAKLSGVTAAPVFISSVVRNQQILHRVRLGPIGSADEVSRTQDSIRVANLGQPTLVRPD
notes: source: E. coli BL21-star (DE3), purified (Ni-NTA)
Kd (SltB2): 1040 nM
koff (SltB2): 0.0005 s⁻¹
kon (SltB2): 480 M⁻¹ s⁻¹
Kd (MltD [6]): 430 nM
koff (MltD [6]): 0.00116 s⁻¹
kon (MltD [6]): 2700 M⁻¹ s⁻¹
Kd (PBP4): 130 nM
koff (PBP4): 0.00086 s⁻¹
kon (PBP4): 6700 M⁻¹ s⁻¹
kon (MltF): 500 M⁻¹ s⁻¹
Kd (MltB): 620 nM
koff (MltB): 0.00079 s⁻¹
kon (MltB): 1270 M⁻¹ s⁻¹
Kd (MltF2 [7]): 6 nM
koff (MltF2 [7]): 0.00028 s⁻¹
kon (MltF2 [7]): 44000 M⁻¹ s⁻¹
Kd (TypA [8]): 2020 nM
koff (TypA [8]): 0.00077 s⁻¹
kon (TypA [8]): 380 M⁻¹ s⁻¹
Kd (PBP1a [9]): 340 nM
koff (PBP1a [9]): 0.00144 s⁻¹
kon (PBP1a [9]): 4200 M⁻¹ s⁻¹
